Patent publication US20230192824A1 (UNITED STATES OF AMERICA AS REPRESENTED BY THE SECRETARY OF …, published 2023)

What was measured:
[1] = biological target: T1, CfaE, tip adhesin of CFA/I fimbriae on wild type ETEC strain H10407 (Escherichia coli (ETEC) strain H10407, UniProt P25734 23-360); test: cell-based or functional assay
T1 sequence: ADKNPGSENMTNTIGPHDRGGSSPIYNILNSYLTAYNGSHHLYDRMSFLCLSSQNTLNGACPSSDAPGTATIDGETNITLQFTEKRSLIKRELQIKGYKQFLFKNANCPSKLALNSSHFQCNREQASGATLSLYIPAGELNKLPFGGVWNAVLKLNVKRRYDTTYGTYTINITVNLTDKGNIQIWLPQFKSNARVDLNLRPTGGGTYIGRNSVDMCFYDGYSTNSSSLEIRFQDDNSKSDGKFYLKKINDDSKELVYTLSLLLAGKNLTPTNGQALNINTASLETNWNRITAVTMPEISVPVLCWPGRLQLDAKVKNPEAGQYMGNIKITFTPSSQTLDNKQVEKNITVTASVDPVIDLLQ

[2] = biological target: T1, CfaE, tip adhesin of CFA/I fimbriae on …; test: cell-based or functional assay; remark: listed apart in the source
[3] = biological target: CsfD, tip adhesin of CS4 fimbriae on wild type ETEC strain BANG10-SP (Escherichia coli (ETEC) strain BANG10-SP); test: cell-based or functional assay
[4] = biological target: CsuD, tip adhesin of CS14 fimbriae on wild type ETEC strain WS3294A (Escherichia coli (ETEC) strain WS3294A); test: cell-based or functional assay
[5] = biological target: T2, CsbD, tip adhesin of CS17 fimbriae on wild type ETEC strain WS6788A (Escherichia coli (ETEC) strain WS6788A); test: cell-based or functional assay
T2 chain: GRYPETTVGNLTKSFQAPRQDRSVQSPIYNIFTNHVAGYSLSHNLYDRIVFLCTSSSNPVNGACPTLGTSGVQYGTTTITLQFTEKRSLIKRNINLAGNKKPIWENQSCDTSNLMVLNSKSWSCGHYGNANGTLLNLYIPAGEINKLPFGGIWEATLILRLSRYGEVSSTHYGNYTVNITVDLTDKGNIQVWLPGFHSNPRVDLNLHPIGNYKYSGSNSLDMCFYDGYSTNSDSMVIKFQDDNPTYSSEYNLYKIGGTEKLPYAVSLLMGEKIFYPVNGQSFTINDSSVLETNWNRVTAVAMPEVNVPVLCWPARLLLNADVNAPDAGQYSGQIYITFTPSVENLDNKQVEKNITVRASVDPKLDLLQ

[6] = biological target: T3, CsbD L85I/H144A, tip adhesin of CS17 fimbriae on wild type ETEC strain LSN02-013966/A (Escherichia coli (ETEC) strain …); test: cell-based or functional assay
T3 chain: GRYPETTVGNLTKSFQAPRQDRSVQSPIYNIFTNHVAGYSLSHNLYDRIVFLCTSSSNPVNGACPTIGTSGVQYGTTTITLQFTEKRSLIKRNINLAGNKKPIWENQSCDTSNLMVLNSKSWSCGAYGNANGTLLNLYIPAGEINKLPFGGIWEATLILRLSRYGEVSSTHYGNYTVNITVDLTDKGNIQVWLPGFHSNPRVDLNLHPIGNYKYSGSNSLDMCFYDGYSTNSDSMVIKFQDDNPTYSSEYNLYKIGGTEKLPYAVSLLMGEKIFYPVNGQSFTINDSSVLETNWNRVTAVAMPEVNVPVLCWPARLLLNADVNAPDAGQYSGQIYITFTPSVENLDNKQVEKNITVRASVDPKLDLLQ

[7] = biological target: CooD, tip adhesin of CS1 fimbriae on wild type ETEC strain WS1974A (Escherichia coli (ETEC) strain WS1974A); test: cell-based or functional assay
[8] = biological target: T4, CotD, tip adhesin of CS2 fimbriae on wild type ETEC strain C91f (Escherichia coli (ETEC) strain C91f); test: cell-based or functional assay
T4 chain: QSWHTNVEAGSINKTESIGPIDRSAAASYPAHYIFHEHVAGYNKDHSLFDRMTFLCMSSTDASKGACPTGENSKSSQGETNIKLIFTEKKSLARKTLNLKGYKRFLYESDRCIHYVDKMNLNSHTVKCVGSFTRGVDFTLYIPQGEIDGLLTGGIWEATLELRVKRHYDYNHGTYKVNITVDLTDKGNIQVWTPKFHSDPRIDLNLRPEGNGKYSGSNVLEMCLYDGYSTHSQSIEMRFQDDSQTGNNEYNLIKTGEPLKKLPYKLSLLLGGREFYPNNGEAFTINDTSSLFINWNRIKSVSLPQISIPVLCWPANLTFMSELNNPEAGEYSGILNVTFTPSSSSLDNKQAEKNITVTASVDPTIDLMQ

[9] = biological target: T5, dsc19CsbD6xhis (WS6788A), donor strand complemented recombinant CS17 fimbrial tip adhesin CsbD (Escherichia coli (ETEC) strain WS6788A); test: ELISA on coated adhesin
T5 construct: also called dscCsbD; primary CsbD
T5 chain: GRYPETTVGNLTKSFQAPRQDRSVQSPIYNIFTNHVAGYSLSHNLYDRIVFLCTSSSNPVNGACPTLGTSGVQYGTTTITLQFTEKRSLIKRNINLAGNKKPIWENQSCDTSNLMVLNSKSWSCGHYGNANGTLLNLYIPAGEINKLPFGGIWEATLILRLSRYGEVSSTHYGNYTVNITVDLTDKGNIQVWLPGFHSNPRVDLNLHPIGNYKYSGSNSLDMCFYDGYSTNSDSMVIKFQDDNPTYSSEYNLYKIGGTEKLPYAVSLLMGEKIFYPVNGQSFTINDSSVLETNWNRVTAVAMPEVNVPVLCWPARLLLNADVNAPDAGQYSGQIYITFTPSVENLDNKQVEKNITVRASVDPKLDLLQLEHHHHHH

[10] = biological target: T6, dsc19CotD6xhis (C91f), donor strand complemented recombinant CS2 fimbrial tip adhesin CotD (Escherichia coli (ETEC) strain C91f); test: ELISA on coated adhesin
T6 construct: also called dscCotD; CS2 adhesin
T6 chain: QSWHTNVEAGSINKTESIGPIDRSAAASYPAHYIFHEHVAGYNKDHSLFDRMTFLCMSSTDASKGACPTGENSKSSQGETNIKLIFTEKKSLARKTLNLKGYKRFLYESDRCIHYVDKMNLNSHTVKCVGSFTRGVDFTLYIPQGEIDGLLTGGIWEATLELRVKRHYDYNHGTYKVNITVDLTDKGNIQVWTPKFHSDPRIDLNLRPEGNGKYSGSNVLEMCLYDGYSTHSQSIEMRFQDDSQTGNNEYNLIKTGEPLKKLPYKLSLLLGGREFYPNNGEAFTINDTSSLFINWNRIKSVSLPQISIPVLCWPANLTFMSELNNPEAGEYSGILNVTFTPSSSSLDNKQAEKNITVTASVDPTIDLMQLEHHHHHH

[11] = biological target: T7, CsbD L85I, tip adhesin of CS17 fimbriae on wild type ETEC strain WS4240A (Escherichia coli (ETEC) strain WS4240A); test: cell-based or functional assay
T7 chain: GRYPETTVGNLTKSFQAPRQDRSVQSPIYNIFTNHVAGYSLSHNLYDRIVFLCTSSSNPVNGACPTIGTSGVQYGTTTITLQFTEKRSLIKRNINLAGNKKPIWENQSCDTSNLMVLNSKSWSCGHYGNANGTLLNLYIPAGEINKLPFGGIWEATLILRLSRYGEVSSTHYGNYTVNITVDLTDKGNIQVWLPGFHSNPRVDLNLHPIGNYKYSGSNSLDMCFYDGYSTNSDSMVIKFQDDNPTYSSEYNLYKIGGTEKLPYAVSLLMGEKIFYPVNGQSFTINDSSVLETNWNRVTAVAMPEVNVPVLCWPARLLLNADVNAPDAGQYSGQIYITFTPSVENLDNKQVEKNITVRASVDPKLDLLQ

[12] = biological target: T8, dsc19CfaE6xhis (H10407), donor strand complemented recombinant CFA/I fimbrial tip adhesin CfaE (Escherichia coli (ETEC) strain H10407, UniProt P25734 23-360); test: ELISA on coated adhesin
T8 construct: also called dscCfaE; primary CfaE
T8 sequence: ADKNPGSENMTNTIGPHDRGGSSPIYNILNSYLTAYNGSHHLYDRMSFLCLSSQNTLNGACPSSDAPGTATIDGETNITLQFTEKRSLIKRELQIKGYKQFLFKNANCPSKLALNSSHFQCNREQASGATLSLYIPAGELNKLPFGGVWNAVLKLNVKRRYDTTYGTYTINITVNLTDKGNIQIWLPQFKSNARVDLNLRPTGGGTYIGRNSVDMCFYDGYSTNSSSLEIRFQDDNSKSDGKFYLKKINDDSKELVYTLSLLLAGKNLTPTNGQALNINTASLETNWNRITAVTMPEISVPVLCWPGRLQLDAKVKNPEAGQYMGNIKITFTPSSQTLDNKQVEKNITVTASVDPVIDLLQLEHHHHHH

Binder | fold reduction of ETEC H10407 binding to Caco-2 cells [1] [fold] | MIC in HAI [2] [µg/mL] | MIC in HAI [3] [µg/mL] | MIC in HAI [4] [µg/mL] | MIC in HAI [5] [µg/mL] | MIC in HAI [6] [µg/mL] | MIC in HAI [7] [µg/mL] | MIC in HAI [8] [µg/mL] | binding result [9] | binding result [10] | MIC in HAI [11] [µg/mL] | binding result [12]
anti-CfaE mouse mAb P8D10 (antibody, V domains shown, also called full length P8D10 mAb) VH: QIQLVQSGPELKKPGETVKISCKASGYTFTNYGMNWVKQAPGKGLKWMGWINTYTGQSTYADDFKGRFAFSLETSASTAHLQISNLKNEDAATYFCARMEYGNYENALDYWGQGTSVTVSS VL: DIVMTQSHKFMSTSIGDRVSITCKASQDVSTAVVWYQQKPGHSPKLLIYSASYRYTGVPDRFTGSGSGTDFTFTISSVQAEDLAVYYCLQHFSTPRTFGGGTNLEIK | > 4 | 1.2 | > 250 | > 250 | > 250 | > 250 | > 250 | > 250 | no binding (tested: mAb 2 ug/ml) | no binding (tested: mAb 2 ug/ml) |  | 
anti-CfaE mouse mAb P5C7 (antibody, V domains shown) VH: QIQLVQSGPELKKPGETVKISCKASGYTFTNYGMNWVKQAPGKGLKWMGWINTYTGEPTYTDDFKGRFAFSLETSASTAYLQINSLKTEDTATYFCARMEYGNYENAMDSWGQGTSVTVSS VL: DTVMTQSHKFMSTSVGDRVSITCKASQDVSTAVVWYQQKPGQSPKLLIYSASYRYTGVPDRFTGSGSGTDFTFTISSVQAEDLAVYYCLQHFNIPRTFGGGTKLEIK |  | 1.2 | > 250 | > 250 | 16 | > 250 | > 250 | > 250 |  | no binding (tested: mAb 2 ug/ml) | > 250 | 
anti-CsbD mouse mAb P7C2 (antibody, V domains shown) VH: EVKLEESGGGLVQPGGSMKLSCAASGFTFSDAWMDWVRQSPEKGLEWVGKIRSEINDHATYYAESVKGRFTISRDDSKSGVYLQMNNLRAEDTGIYYCARDGYYGAMDYWGQGTSVTVSS VL: DVQITQSPSYLAASPGETITINCRSNKSISRYLAWYQEKPGKTNKLLIYSGSTLQSGIPSRFSGSGSNTDFTLTISSLEPEDFAMYYCQQHNEYPYTFGSGTKLEIK |  | > 250 | > 250 | > 250 | 1 | 1 | 4 | > 250 |  | no binding (tested: mAb 2 ug/ml) | 2 | no binding (tested: mAb 2 ug/ml)
anti-CotD mouse mAb P6B8 (antibody, V domains shown) VH: QVTLKESGPGILQPSQTLSLTCSFSGFSLSTSGMGVGWIRQPSGKGLEWLSHIWWDDEKRYNPALKSRLTISKDTSSNQVFLKIASVDTADTATYYCARIGDRSGHAGFVYWGQGTLVTVSA VL: DIKMTQSPSSMYASLGERVTITCKASQDINSYLSWFQQKPGKSPKTLIYRANRLVDGVPSRFSGSGSGQDYSLTISSLEYEDMGTYYCLQYDEFPYTFGGGTKLEIK |  | > 250 | > 250 | > 250 | > 250 | > 250 | > 250 | 3 | no binding (tested: mAb 2 ug/ml) |  |  | no binding (tested: mAb 2 ug/ml)
anti-CsbD mouse mAb P9A5 (antibody, V domains shown, Isotype n.d) VH: EVQLQQFGAEVVKPGASVKISCKASGYTFTDYNIDWVKQSHGESLEWIGDISPNSEGTTYNQKFKGQATLTIDKSSTTAYMELRSLTSEDSAVYYCARGSGIWNGLDYWGQGTSVTVSS VL: DIVMTQSHKFMSTSVGDRVSITCKASQDVSTAVAWYQQKPGQSPQLLIYSSSYRYVGVPDRFTGSGSGTDFTFTISSVQAEDLAVYYCHQHYSLPYTFGGGTKLEIK |  | > 250 | > 250 | > 250 | 4 | 3.9 | 4 | > 250 |  | no binding (tested: mAb 2 ug/ml) |  | no binding (tested: mAb 2 ug/ml)
